Biological target: T1, PvuRts1I, Q52612
T1 chain: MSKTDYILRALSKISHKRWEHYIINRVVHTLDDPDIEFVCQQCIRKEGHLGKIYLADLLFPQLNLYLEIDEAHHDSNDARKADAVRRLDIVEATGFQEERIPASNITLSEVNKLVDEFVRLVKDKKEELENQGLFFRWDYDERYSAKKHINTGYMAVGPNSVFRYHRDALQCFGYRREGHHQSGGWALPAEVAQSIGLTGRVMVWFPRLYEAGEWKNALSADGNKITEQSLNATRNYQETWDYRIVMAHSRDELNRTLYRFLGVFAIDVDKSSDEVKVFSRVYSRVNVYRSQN
Test: SEC; size-exclusion chromatography of purified PvuRts1I; single peak, apparent molecular weight 89 kDa against a theoretical 34 kDa
Details: remark: other sources report otherwise

B1: PvuRts1I, Q52612 1-293 (enzyme)
chain: MSKTDYILRALSKISHKRWEHYIINRVVHTLDDPDIEFVCQQCIRKEGHLGKIYLADLLFPQLNLYLEIDEAHHDSNDARKADAVRRLDIVEATGFQEERIPASNITLSEVNKLVDEFVRLVKDKKEELENQGLFFRWDYDERYSAKKHINTGYMAVGPNSVFRYHRDALQCFGYRREGHHQSGGWALPAEVAQSIGLTGRVMVWFPRLYEAGEWKNALSADGNKITEQSLNATRNYQETWDYRIVMAHSRDELNRTLYRFLGVFAIDVDKSSDEVKVFSRVYSRVNVYRSQN
- stoichiometry N: 2

From article PMC4157451
